We go through six molecules from patent CN117425675A (XINSHI BIOPHARMACEUTICAL CO LTD, dated 2024).

Positions count from the first letter of the chain named. Names and notes keep the numbering of the source.

Assay [1] has as its target T1, mouse TNFR2 stably overexpressed on HEK293T cells (mouse (Mus musculus), UniProt P25119 23-474).
T1 construct: also called 鼠TNFR2
T1 sequence: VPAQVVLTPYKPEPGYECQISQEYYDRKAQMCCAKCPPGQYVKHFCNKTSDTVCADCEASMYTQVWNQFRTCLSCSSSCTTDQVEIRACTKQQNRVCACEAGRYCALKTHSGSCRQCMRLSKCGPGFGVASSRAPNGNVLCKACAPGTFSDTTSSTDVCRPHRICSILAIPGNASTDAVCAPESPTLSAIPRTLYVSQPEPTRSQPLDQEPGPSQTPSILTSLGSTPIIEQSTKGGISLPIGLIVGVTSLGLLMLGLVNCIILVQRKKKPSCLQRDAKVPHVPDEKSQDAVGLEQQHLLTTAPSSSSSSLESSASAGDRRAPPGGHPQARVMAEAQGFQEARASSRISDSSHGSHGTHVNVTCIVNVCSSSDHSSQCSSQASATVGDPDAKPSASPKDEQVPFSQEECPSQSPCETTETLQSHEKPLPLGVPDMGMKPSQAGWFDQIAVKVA
As to the kind of experiment: flow cytometry on HEK293T cells stably overexpressing mouse TNFR2. Background: In flow cytometry, cells or beads pass a laser one at a time.

For assay [2], the target named is T2, human TNFR2 expressed on cells (stably overexpressed on HEK293T, CHO-K1 or Jurkat cells; endogenous on THP1) (human (Homo sapiens), UniProt P20333 23-461).
T2 construct: also called 人TNFR2; hTNFR2
T2 sequence: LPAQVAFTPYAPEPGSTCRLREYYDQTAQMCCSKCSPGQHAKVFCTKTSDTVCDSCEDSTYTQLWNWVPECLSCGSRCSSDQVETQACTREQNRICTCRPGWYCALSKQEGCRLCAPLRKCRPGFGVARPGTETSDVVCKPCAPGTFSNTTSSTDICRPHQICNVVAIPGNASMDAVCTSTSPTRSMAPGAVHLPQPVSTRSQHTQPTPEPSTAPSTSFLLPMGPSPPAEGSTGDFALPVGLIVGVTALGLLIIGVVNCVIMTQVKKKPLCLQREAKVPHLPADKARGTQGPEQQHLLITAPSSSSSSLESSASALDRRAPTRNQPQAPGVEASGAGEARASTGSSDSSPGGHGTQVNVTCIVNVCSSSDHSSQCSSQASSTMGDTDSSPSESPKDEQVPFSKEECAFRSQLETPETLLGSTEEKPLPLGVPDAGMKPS
As to the kind of experiment: binding to cells stably overexpressing human TNFR2 (flow cytometry / imaging; text says HEK293T, table title says CHO-K1).

Assay [3] addresses T3, human TNFR1 stably overexpressed on CHO-K1 cells (human (Homo sapiens), UniProt P19438 30-455).
T3 construct: also called 人TNFR1; TNFRSF1A
T3 sequence: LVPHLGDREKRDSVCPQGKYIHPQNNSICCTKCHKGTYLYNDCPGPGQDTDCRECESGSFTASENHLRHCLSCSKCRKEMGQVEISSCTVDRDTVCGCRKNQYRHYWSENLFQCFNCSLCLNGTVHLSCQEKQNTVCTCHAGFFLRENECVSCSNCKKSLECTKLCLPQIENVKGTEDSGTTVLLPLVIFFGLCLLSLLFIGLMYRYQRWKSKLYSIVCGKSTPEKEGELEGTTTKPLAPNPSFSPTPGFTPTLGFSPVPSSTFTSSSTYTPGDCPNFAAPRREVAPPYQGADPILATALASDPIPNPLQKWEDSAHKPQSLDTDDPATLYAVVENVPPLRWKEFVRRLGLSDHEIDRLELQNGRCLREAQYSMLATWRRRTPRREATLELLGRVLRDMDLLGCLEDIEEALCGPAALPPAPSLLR
As to the kind of experiment: flow cytometry on CHO-K1 cells stably overexpressing human TNFR1.

B1: R2_mAb-3 (antibody, V domains shown)
VH: QVQLQESGPGLVKPSETLSLTCTVSGGSISSYYWSWIRQAPGKGLEWIGYIYYSGSTNYNPSLKSRVTISVDTSKNQFSLKLSSVTAADTAVYYCARDDGSSDYGMDVWGQGTTVTVSS
VL: AIQLTQSPSSLSASVGDRVTITCRASQGISSALAWYQQKPGKAPKLLIYDASSLESGVPSRFTGSGTDFTLTISSLQPEDFATYYCQQFNNYMYTFGQGTKLEIK
notes: also called R2-3
Usually EC50 stands for the concentration at which the effect is half-maximal. A lower EC50 goes with higher potency in that assay. Take B1: the binding result in assay [1] and in assay [3] was “no binding (tested: 10μg/mL)” in each case. Besides, in assay [2], it took 0.38 nM to reach a half-maximal effect (EC50).

B2: R2_mAb-4 (antibody, V domains shown)
VH: QVQLVQSGAEVRKPGASVKVSCKASGYTFTSYSVTWVRQAPGQGLEWMGWINAFSGNTHYAQNLQDRVTMTTDTSTSTAYMELRSLRSDDTAVYYCAREEGSGSYEDYYGMDVWGQGTTVTVSS
VL: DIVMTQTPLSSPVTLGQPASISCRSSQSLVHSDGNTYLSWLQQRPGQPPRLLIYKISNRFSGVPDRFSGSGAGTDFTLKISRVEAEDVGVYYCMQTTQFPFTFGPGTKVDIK
notes: The mouse IgG2a chimera was used only in the tumour models; also called R2-4
In the case of B2, the binding result in assay [1] and in assay [3] was “no binding (tested: 10μg/mL)” each time. This molecule displayed a 50% effective concentration (EC50) in assay [2] of 0.11 nM.

B3: R2_mAb-5 (antibody, V domains shown)
VH: QVQLVQSGAEVKKPGASVTVSCKASGYTFSTYGIIWVRQAPGQGLEWMGWISAFNGNANSAQKLQDRVTMTTDTSTSTAYMELRSLRSDDTAVYYCARGEDFFDYWGQGTLVTVSS
VL: DIVMTQTPLSSPVTLGQPASISCRSSQSLVHSDGNTYLSWLQQRPGQPPRLLIYKVSSRFSGVPDRFSGSGAGTDFTLKISRVEAEDVGVYYCTQSTQFPFTFGRGTKLEIK
notes: The mouse IgG2a, IgG1 and IgG1 D265A chimeras were used only in the tumour models; also called R2-5
In the case of B3, the binding result in assay [1] and in assay [3] was “no binding (tested: 10μg/mL)” throughout. In assay [2], a half-maximal response (EC50) required 0.1 nM.

B4: R2_mAb-6 (antibody, V domains shown)
VH: QVQLVQSGAEVKKPGASVKVSCKASGYTFLSYGLSWVRQAPGQGLEWMGWINAYNGNTNYAQNLQDRVTMTTDTSTSTAYMELRSLRSDDMAVYYCARWDILTAYYSSDAFDIWGQGTMVTVSS
VL: B3 VL with S39N, S58N, S96T, F101I, R105Q, K108R
notes: also called R2-6
B4: the binding result in assay [1] and in assay [3] was “no binding (tested: 10μg/mL)” throughout. In assay [2], it took 0.14 nM to reach a half-maximal effect (EC50).

B5: R2_mAb-2 (antibody, V domains shown)
VH: QVQLVQSGPEVKKPGASVKVSCKASGYTFTNYGISWVRQAPGQGLEWMGWINAYNGNTNYAQKLQGRVTMTTDTSTSTAYMELRSLRSDDTAVYYCARDGGYGSGTYHNDYYYYYGMDVWGQGTTVTVSS
VL: EIVLTQSPDFQSMTPEEKVTITCRASQSIGSNLHWYQQKPDQSPKLLIKFASQSISGVPSRFSGSGSGTDFTLTINSLEAEDAATYYCHQSSSLPFTFGPGTKVDIK
notes: also called R2-2
On to B5, for which the binding result in assay [1] and in assay [3] was “no binding (tested: 10μg/mL)” throughout. This molecule came in with an EC50 in assay [2] of 0.35 nM.

B6: R2_mAb-1 (antibody, V domains shown)
VH: QVQLVESGGGVVQPGRSLRLSCAASGFTFSSYGMHWVRQAPGKGLEWVAVIWFDEDNKDYADSVKGRFTISRDNSKNTLYLQMSSLRAEDTAVYYCARDNDILTGYYYYYGMDVWGQGTTVTVSS
VL: DIQLTQSPSFLSASVGDRVTITCRASQDISSYLAWYQQKPGKAPKLLIYAASTLQSGVPSRFSGSGSGTEFTLTISSLQPEDFATYYCQQLNSYPPTFGQGTKVEIK
notes: The VH/VL pair is read from parallel lists; also called R2-1
Regarding B6, the binding result in assay [1] and in assay [3] was “no binding (tested: 10μg/mL)” throughout. Further, the EC50 in assay [2] stood at 0.1 nM.
